Experimental data: the RNAGym collection of RNA variant scans (doi:10.1073/pnas.2313332121)

B1: TPR t1 (parent)
chain: GACCAAUCUGCCCUCAGAGCUCGAGAACAUCUUCGGAUGCAGAGGAGGCAGGCUUCGGUGGCGCGAUAGCGCCAACGUCCUCAACCUCCAAUGCAUCCCACCACAUGAUGAUGCCUGAAGAGCCUUGGUUUUUUG

Variants of: B1
Test: polymerase ribozyme fitness, log enrichment relative to wild type (log ratio); higher = more active; in vitro selection for triplet polymerase activity
Summary of the method: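 Fitness measures genotype enrichment against wild-type enrichment on a logarithmic scale, with inverse-variance-weighted averaging of replicates. The logarithm is base 2, and genotypes were kept only with ≥10 input reads and ≥1 read per output in Illumina sequencing. The sequenced libraries came from one triplicate in vitro selection round, including frozen incubation at −7 °C, of PCR-built, transcribed mutant libraries of each subunit of a heterodimeric triplet polymerase ribozyme.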

Variant	polymerase ribozyme fitness (log ratio)
GACCAAUCUGCCCUCAGAGCUCGAGAACAUCUUCGGAUGCAGAGGAGGCAUGCUUCGGUGGCGCGAUAGCGCCAACGUCCUCAACCUCCAAUGCAUCCCACCACAUGAUAAUGCCUGAAGAGCCUUGGUUUAUUG [G51U G110A U132A]	-5.7
GACCAAUCUGCCCUCAGAGCUCGAGAACAUCUUCGGAUGCAGAGGAGACAGGCUUCGGUGGCACGAUAGCGCCAACGUCCUCAACCUCCAAUGCAUCCCACCACAUGAUGAUGCCUGAAGAGCCUUGGUUUUGUG [G48A G63A U133G]	-1.13
GACCAAUCUGCCCUCAGAGCUCGAGAACAUCUUCGGAUGCAGAGGAGGCAGGCUUCGGUGGCGCGAUAGUGCCAACGUCCUCAACCUCCAAUGCAUCCCACCACAUGAUGAUGCCUUUAGAGCCUUGGUCUUUUG [C70U G117U A118U U130C]	-3.8
GACCAAUCUGCCCUGAGAGCUCGAGAACAUCUUCGGAUGCAGACGAAGCAGGCUUCGGUGGCGCGAUAUCGCCAACGUCCUCAACCUCCAAUGCAUCCCACCACAUGAUGAUGCCUGAAGAGCCUUGGUUUUUUG [C15G G44C G47A G69U]	-3.06
GACCAAUCUGCCCUCAGAGCUCGAGAACAUCUUCGGAUGCAGAGGAGGCAGGUUUUGGUGGCGCGAUAGCGCCAACGUCCUCAACCUCCAAUGCAUCCCACCACAUGAUGAUGCCUGAAGAGCCUUGGUUUUUUG [C53U C56U]	-0.207
GACCAAUCGGCCCUCAGAGCUCGAGAACAUCUUCGGAUGCAGAGGAGGCAGGCUUCGGUGGCGCGAUAGCGCCAACACCCUCAACCUCCAAUGCAUCACACCACAUGAUGAUCCCUGAAGAGCCUUGGUUUUUUG [U9G G77A U78C C98A G113C]	-5.07
GACCAAUCUGCCCUCAGAGCUCGAGAACAUCUUCGGAUGCAGAGGAGGCAGGCUUCGGUGGCACGAUAGCGCCAACGUCCUCAACCUCCAAUGCAUCCCACCACAUGAUGACGCCUGAAGAGCCUUGGUUUUUUG [G63A U112C]	0.988
GACCAAUCUGCCCUCAGUGCUCGAGAACAUCUUCGGAUGCAGAGGAGGCAGGCUUCGGUGGCGCGAUAGCGCGAACGUCCUCAACCUCCAAUGCAUCCCUCCACAUGAUGAUACCUGAAGAGCCUUGAUUUUUUG [A18U C73G A100U G113A G128A]	-5.47
GACCAAUCUGCCCUCAGAGCUCGAGAACAUCCUCGGAUGCAGAGGAGGCAGGCUUCGGUCGCGCGAUAGCGCCAACGUCCUCAACCUCCAAUGCAUCCCACCACAAGAUGAUACCUGAAGAGCUUUGGUUUUUUG [U32C G60C U106A G113A C124U]	-3.04
GACCAAUCUGCCCUCAGAGCUCGAGAACAUCUUCGGAUGCAGAGGAGGCAGGCUUCGGUGGCGCGAUAGCGCCAACGUCCUCAACCUCCAAUUCAUCCCAACACAUGAUGAUACGUGAAGAGCCUUGGUUUUUUG [G93U C101A G113A C115G]	-4.73
GACCAAUCUGCCCUCAGAGCUCGAGGACAUCUUCGGAUGCAGAGGAGGCAGGCUUCGGUUGCGCGAUAGCGCCAACAUCCUCACCCUCCAAUGCAUCCCACGACAUGAUGAAGCCCGAAGAGCCUUGGUUUUUUG [A26G G60U G77A A84C C102G U112A U116C]	-5.99
GACCAAUCUGCCCUCAGAGCUCGAGAACAUCUUCGGAUGCAGAGGAGGCAGGCUUCGGUGGCGCGAUAGCGCCAACGUCCUCAACCUCCAAUGCAUCCCACCACAUAAUGAUGCCUGAAGAACCUUGGUUUUUUG [G107A G122A]	-5.18
GACCAAUCUGCCCUCAGAGCUCGAGAACAUCUUCGGAUGCAGAGGUGGCAGGCUUCGGUGGCGCGAUAGCGCCAACGUCCUCAACCUCCAAUGCAUCCCACCACAUGAUGAUGCCUGAAUAGCCUUGGUUUUUUC [A46U G120U G135C]	-0.818
GACCAAUCUGCCCUCAGAGCUCGAGGACAUCUUCGGAUGCAGAGGAGGCAGGCUUCGGUGGCGCGAUAGCGCCAACGUCCUCAACCUCCAAUACAUCCCACCACAUGAUGAUGACUGAAGAGCCUUGGUUUUUUG [A26G G93A C114A]	-3.14
GACCAAUCUGCCCUCAGAGCUCGAGAACAUCUUCGGAUGCAGAGGAGGCAGGCUUCUGUGGCGCGAUAGCGCCAACGUCCUCAACCUUCAAUGCAUCCCACCACAUGGUGAUGCCUGAAGAGCCUUGGUUUUUUG [G57U C88U A108G]	-3.61
GACCAAUCUGCCCUCAGAGCUCGAGAACAUCUUCGGAUGCAUUGGAGGCAGGCUUCGGUGGCCCGAUAGCGCCAACGCCCUCAACCUCCAAUGCAUCCCACCACAUGAUGAUGCCUGAAGAGCCUUGGUUUUUUG [G42U A43U G63C U78C]	-3
GACCAAUAUGCCCUCAGAGCUCGAGAACAUCUUCGGAUGCAGAGGAGGCAGGCUUCGGUGGCGCGAUAGCGCCAACGUUCUCAACCUGCAAUGCAUCCCACUACAUGAUGAUGCCUGAAGAGCCUUGGUUUUUUG [C8A C79U C88G C102U]	-2.19
GACCAAUCUGCCCUCAGGGCUCGAGAACAUCUUCGGAUGCAGAGGAGGCAGGCUUCGGUGGCGCGAUAGCGCCCACGUCCUCAACCUCCAAUGCAUACCACCACAAGAUGAUGCCUGAAGAGCCUUGGUUUUUUG [A18G A74C C97A U106A]	-6.31
GACCAAUCUGCCCUCAGAGCUCGAGAACAUCUUCGGAUGCACAGGAGGAAGGCUUCGGUGGCGCGAUAGCGCCAACGUCCUCAACCUCCAACGCAUCCCACCACAUGAUGAUGCCUAAAGAACCUUGGUUUUUUG [G42C C49A U92C G117A G122A]	-4.11
GACCACUCUGCCCUCAGAGCUCGAGGACAUCUUCGGAGGCAGAGGAGGCAGGGUUCGGUGGCGCGAUAGCGCCAACGUCCUCAACCUCCAAUGCAUCCCACCACAUGAUGAUGCCUGAAGAGCCUUGGUUUUUUG [A6C A26G U38G C53G]	-5.37
GACCAAUCUGCCCUCAGAGCUCGAGAACAUCUUCGGAUGCAGAGGAGGAAGGCUUCGGUGGCGCGAUAGCGCCAACGUCCUCAACCUCCAAUUCAUCCCACCACAUGAUGAUGCCUGAAGAGCCAUGGUUGUUUG [C49A G93U U125A U131G]	-2.24
